± gives the uncertainty stated by the source.
B1: Metastasis-associated protein MTA3, residues 265 to 317; numbered along this chain, Q9BTC8 (parent)
chain: RDEMEEWSASEASLFEEALEKYGKDFNDIRQDFLPWKSLTSIIEYYYMWKTTD

Variants of: B1
Experiment: abundance fitness (aPCA) (normalised: wild type 0, dead -1); higher = more abundant; growth selection in yeast, the domain comes from the species named
Conditions: Homo sapiens
RDEMEEWSASEASLFEEALEKYGKCFNDIRQDFLPWKSLTSIIEYYYMWKTTD [D25C] gave an abundance fitness of -0.026 ± 0.11.
RDEMEEWSASEASLFEEALEKYGKWFNDIRQDFLPWKSLTSIIEYYYMWKTTD [D25W] showed an abundance fitness of -0.776 ± 0.17.
Variant NDEMEEWSASEASLFEEALEKYGKDFNDIRQDFLPWKSLTSIIEYYYMWKTTD [R1N] has an abundance fitness of 0.378 ± 0.14.
In the case of ADEMEEWSASEASLFEEALEKYGKDFNDIRQDFLPWKSLTSIIEYYYMWKTTD [R1A], the abundance fitness is reported as 0.304 ± 0.35.
Work on VDEMEEWSASEASLFEEALEKYGKDFNDIRQDFLPWKSLTSIIEYYYMWKTTD [R1V] yielded an abundance fitness of 0.231 ± 0.4.
RDEMEEWSASEASLFEEALEKYGKDFNDIRQDFLPWKSLTSIIEYYYMWKTKD [T52K] showed an abundance fitness of 0.344 ± 0.1.
In the case of RDEMEEWSASEASLFEEALEKYGKDFNDIRQDFLPWKSLTSIIEYYYMWKTAD [T52A], the abundance fitness is reported as -0.097 ± 0.065.
Work on RDEMEEWSASEASLFEEALEKYGKDFNDIRQDFLPWKSLTSIIEYYYMWKTRD [T52R] yielded an abundance fitness of 0.08 ± 0.069.
In the case of RDEMEEWSASEASLFEEALEKYGKDFNDIRQDFLPWKSLTSIIEYVYMWKTTD [Y46V], the abundance fitness is reported as -0.98 ± 0.29.
For RDEMEEWSASEASLFEEALEKYGKDFNDIRQDFLPWKSLTSIIEYNYMWKTTD [Y46N], the abundance fitness was -0.907 ± 0.31.
In the case of RDEMEEWSASEAILFEEALEKYGKDFNDIRQDFLPWKSLTSIIEYYYMWKTTD [S13I], the abundance fitness is reported as -0.527 ± 0.23.
RDEMEEWSASEANLFEEALEKYGKDFNDIRQDFLPWKSLTSIIEYYYMWKTTD [S13N] showed an abundance fitness of -0.261 ± 0.17.
RDEMEEWSASEAFLFEEALEKYGKDFNDIRQDFLPWKSLTSIIEYYYMWKTTD [S13F] gave an abundance fitness of -0.436 ± 0.16.
RDEMEEWSASEATLFEEALEKYGKDFNDIRQDFLPWKSLTSIIEYYYMWKTTD [S13T] gave an abundance fitness of -0.212 ± 0.1.
RDEMEEWSASEASEFEEALEKYGKDFNDIRQDFLPWKSLTSIIEYYYMWKTTD [L14E] showed an abundance fitness of -1 ± 0.25.
Work on RDEMEEWSASEASIFEEALEKYGKDFNDIRQDFLPWKSLTSIIEYYYMWKTTD [L14I] yielded an abundance fitness of -0.444 ± 0.11.
In the case of RDEMEEWSASEASLFEEALEKYGKDFNDIRQDFLPWKSLTSIIEVYYMWKTTD [Y45V], the abundance fitness is reported as -1.01 ± 0.32.
For RDEMEEWSASEASLFEEALEKYGKDFNDIRQDFLPWKSLTSIIEEYYMWKTTD [Y45E], the abundance fitness was -0.77 ± 0.21.
With RDEMEEWSASEASLFEEALEKYGKDFNDIRQDFLPWKSLTSIIEQYYMWKTTD [Y45Q] the abundance fitness was -0.566 ± 0.16.
In the case of RDEMEEWSASEASLFEEALEKYGKDFNDIRQDFLPWKSLTSIIEYYLMWKTTD [Y47L], the abundance fitness is reported as -0.735 ± 0.21.
RDEMEEWSASEASLFEEALEKYGKDFNDIRQDFLPWKSLTSIIEYYYMWITTD [K50I] showed an abundance fitness of -0.653 ± 0.089.
In the case of RDEMEEWSASEASLFEEALEKYGVDFNDIRQDFLPWKSLTSIIEYYYMWKTTD [K24V], the abundance fitness is reported as -0.217 ± 0.095.
RDEMEEWSASEASLFEEALEKYGCDFNDIRQDFLPWKSLTSIIEYYYMWKTTD [K24C] showed an abundance fitness of 0.163 ± 0.071.
In the case of RDEMEEWSASEASLFEEALEKYGQDFNDIRQDFLPWKSLTSIIEYYYMWKTTD [K24Q], the abundance fitness is reported as -0.062 ± 0.074.
RDEMEEWSASEASLFEEALELYGKDFNDIRQDFLPWKSLTSIIEYYYMWKTTD [K21L] showed an abundance fitness of -0.483 ± 0.084.
RDEMEEWSASEASLFEEALEDYGKDFNDIRQDFLPWKSLTSIIEYYYMWKTTD [K21D] gave an abundance fitness of -0.579 ± 0.21.
In the case of RDEMEEWSASEASLFEEALEEYGKDFNDIRQDFLPWKSLTSIIEYYYMWKTTD [K21E], the abundance fitness is reported as -0.867 ± 0.29.
Work on RDEMEEWSASEASLFEEALEYYGKDFNDIRQDFLPWKSLTSIIEYYYMWKTTD [K21Y] yielded an abundance fitness of -0.571 ± 0.17.
For RDEMEEWSASEASLFEEALEKYGKDFNDIRQDFLPWKSLTSIIEYYYMWKTTT [D53T], the abundance fitness was -0.41 ± 0.22.
RDEMEEWSASEASLFEEALEKYGKDFNDIRQDFLPWKSLTSIWEYYYMWKTTD [I43W] showed an abundance fitness of -0.559 ± 0.24.
RDEMEEWSASEASLFEEALEKYGKDFNDIRQDFLPWKSLTSIDEYYYMWKTTD [I43D] gave an abundance fitness of -1.11 ± 0.35.
For RDEMEEWSASEASLFEEALEKYGKDFNDIRQDFLPWKSLTSIPEYYYMWKTTD [I43P], the abundance fitness was -0.875 ± 0.23.
With RDEMEEWSASEASLFEEALEKYGKDFNDIRQDFLPWKSLTSICEYYYMWKTTD [I43C] the abundance fitness was -0.517 ± 0.1.
With RDEMEEWSASEASLFEEALEKYGKDFNDIRQDFLPWKSLTSILEYYYMWKTTD [I43L] the abundance fitness was -0.689 ± 0.089.
For RDEMEEWSASEASLFEEALEKYGKDFNDIRQDFLPWKSLTSEIEYYYMWKTTD [I42E], the abundance fitness was -0.888 ± 0.26.
For RDEMEEWSASEASLFEEALEKYGKDFNDIRQDFLPWKSLTSYIEYYYMWKTTD [I42Y], the abundance fitness was -0.572 ± 0.16.
For RDEMEEWSASEASLFEEALEKYGKDFNDIRQDFLPWKWLTSIIEYYYMWKTTD [S38W], the abundance fitness was -0.992 ± 0.42.
Work on RDEMEEWSASEASLFEEALEKYGKDFNDIRQDFLPWKPLTSIIEYYYMWKTTD [S38P] yielded an abundance fitness of -0.563 ± 0.18.
RDEMEEWSASEASLFEEALEKYGKDFNDIRQDFLPWKHLTSIIEYYYMWKTTD [S38H] showed an abundance fitness of -0.425 ± 0.19.
With RDEMEGWSASEASLFEEALEKYGKDFNDIRQDFLPWKSLTSIIEYYYMWKTTD [E6G] the abundance fitness was -0.302 ± 0.13.
For RDEMEWWSASEASLFEEALEKYGKDFNDIRQDFLPWKSLTSIIEYYYMWKTTD [E6W], the abundance fitness was -0.862 ± 0.15.
Variant RDEMEEWSASEASLFEEALEKYAKDFNDIRQDFLPWKSLTSIIEYYYMWKTTD [G23A] has an abundance fitness of -0.536 ± 0.12.
RDEMEEWFASEASLFEEALEKYGKDFNDIRQDFLPWKSLTSIIEYYYMWKTTD [S8F] gave an abundance fitness of -0.935 ± 0.23.
For RDEMEEWSASEASLFEEALEKYGKDFNDIRQDFLPWLSLTSIIEYYYMWKTTD [K37L], the abundance fitness was -0.802 ± 0.076.
With RDEMEEWSASEASLFEEALEKQGKDFNDIRQDFLPWKSLTSIIEYYYMWKTTD [Y22Q] the abundance fitness was -0.921 ± 0.18.
For RDEMEEWSASEASLFEEALEKLGKDFNDIRQDFLPWKSLTSIIEYYYMWKTTD [Y22L], the abundance fitness was -0.536 ± 0.12.
With RDEMEEWSASEASLFEEALEKDGKDFNDIRQDFLPWKSLTSIIEYYYMWKTTD [Y22D] the abundance fitness was -1.07 ± 0.36.
Work on RDEMEEWSASEASLFEEALEKVGKDFNDIRQDFLPWKSLTSIIEYYYMWKTTD [Y22V] yielded an abundance fitness of 0.068 ± 0.16.
RDEMEEWSASHASLFEEALEKYGKDFNDIRQDFLPWKSLTSIIEYYYMWKTTD [E11H] gave an abundance fitness of -0.175 ± 0.12.
In the case of RDEMEEWSASVASLFEEALEKYGKDFNDIRQDFLPWKSLTSIIEYYYMWKTTD [E11V], the abundance fitness is reported as -0.7 ± 0.12.
